Columns and labels:
[1] = molecular target: recombinant human alpha synuclein A30P (human) (UniProt P37840); test: cell-based or functional assay
[2] = molecular target: recombinant human alpha synuclein A53T (human) (UniProt P37840); test: cell-based or functional assay
[3] = molecular target: recombinant human alpha synuclein E46K (human) (UniProt P37840); test: cell-based or functional assay
[4] = molecular target: recombinant human wild type alpha synuclein (human) (UniProt P37840); test: cell-based or functional assay
[5] = molecular target: biotinylated alpha synuclein (aSN) 1-140 (UniProt P37840); test: SPR (Biacore 8K), biotinylated aSN on SA chip, binder as analyte, 25 °C
[6] = molecular target: biotinylated alpha synuclein (aSN) 1-140 (UniProt P37840); test: SPR (Biacore 8K), biotinylated aSN on SA chip, binder as analyte, 37 °C

Substance: AS69 (designed binder)
- Ranking of the binders in figure 5 (ThT aggregation assay) [1]: 5 rank
- Ranking of the binders in figure 5 (ThT aggregation assay) [2]: 6 rank
- Ranking of the binders in figure 5 (ThT aggregation assay) [3]: 4 rank
- Ranking of the binders in figure 5 (ThT aggregation assay) [4]: 3 rank
- Kd [5]: 72.2 nM
- koff [5]: 0.000114 s⁻¹
- kon [5]: 1580 M⁻¹ s⁻¹
- Kd [6]: 64.9 nM
- koff [6]: 0.000252 s⁻¹
- kon [6]: 3880 M⁻¹ s⁻¹

Source: patent EP4421085A1
